# In article PMC12594925 (Nature Communications, 2025):
# Key:
# DOR-MOR (DM) heterodimer = DOR-MOR (DM) heterodimer (Rattus norvegicus, UniProt P33533+P33535); assay type: binding; conditions: for Effect on DM heterodimerization: DOR and MOR at 0.5-1.0 spots/µm2
# DOR = DOR (Rattus norvegicus, UniProt P33533); test: Colocalization of expressed TM peptides with WT-DOR; assay type: binding; conditions: all molecules expressed at 0.5–1.0 fluorescent spots/µm2
# KOR in K-cells = KOR in K-cells (Rattus norvegicus, UniProt P34975); test: Ca2+ mobilization via Gqi5; assay type: cell-based
# MOR-MOR (MM) homodimer = MOR-MOR (MM) homodimer (Rattus norvegicus, UniProt P33535); conditions: cited from earlier work
# MOR in M-cells = MOR in M-cells (Rattus norvegicus, UniProt P33535); test: Ca2+ mobilization via Gqi5; assay type: cell-based; conditions: [FMax-Fb]/Fb of Fluo-4
# DOR-MOR = DOR-MOR (Rattus norvegicus, UniProt P33535); test: cAMPinG1 cAMP inhibition assay, cells expressing DOR-MOR; assay type: cell-based; conditions: 7 µM forskolin then 50 nM DAMGO; MOR and DOR at 5-10 fluorescent spots/µm2
# DOR in D-cells = DOR in D-cells (Rattus norvegicus, UniProt P33533)
# MOR and DOR in MD-cells = MOR and DOR in MD-cells (Rattus norvegicus, UniProt P33535); test: Ca2+ mobilization via Gqi5; assay type: cell-based; conditions: increase greater with DAMGO than morphine
# MOR = MOR (Rattus norvegicus, UniProt P33535); test: Colocalization of expressed TM peptides with WT-MOR; conditions: both expressed at 0.5–1.0 fluorescent spots/µm2
# DOR-KOR (DK) heterodimer = DOR-KOR (DK) heterodimer (Rattus norvegicus, UniProt P33533+P34975); test: DK colocalization index, two-color single-molecule TIRF imaging; assay type: binding
# Chain of DOR-KOR (DK) heterodimer (P33533 whole entry): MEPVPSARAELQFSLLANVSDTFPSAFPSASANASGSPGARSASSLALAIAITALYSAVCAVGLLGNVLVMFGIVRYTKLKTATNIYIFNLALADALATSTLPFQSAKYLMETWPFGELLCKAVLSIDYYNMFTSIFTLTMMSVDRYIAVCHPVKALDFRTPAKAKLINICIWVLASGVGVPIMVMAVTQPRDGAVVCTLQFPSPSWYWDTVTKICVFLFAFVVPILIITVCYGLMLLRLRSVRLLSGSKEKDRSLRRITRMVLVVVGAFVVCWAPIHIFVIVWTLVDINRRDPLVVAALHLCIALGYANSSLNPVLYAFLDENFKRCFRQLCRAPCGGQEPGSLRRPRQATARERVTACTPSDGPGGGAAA
# Chain of DOR-KOR (DK) heterodimer (P34975 whole entry): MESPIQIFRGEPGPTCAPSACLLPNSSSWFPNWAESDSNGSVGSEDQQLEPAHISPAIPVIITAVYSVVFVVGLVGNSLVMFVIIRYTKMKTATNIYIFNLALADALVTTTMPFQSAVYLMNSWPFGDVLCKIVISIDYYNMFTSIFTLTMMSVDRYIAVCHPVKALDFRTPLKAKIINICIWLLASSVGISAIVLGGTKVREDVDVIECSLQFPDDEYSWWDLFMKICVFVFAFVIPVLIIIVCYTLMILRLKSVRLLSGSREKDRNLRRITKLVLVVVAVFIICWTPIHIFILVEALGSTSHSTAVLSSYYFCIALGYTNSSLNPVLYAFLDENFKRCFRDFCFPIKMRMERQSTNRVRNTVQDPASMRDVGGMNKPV
# Chain of DOR-MOR (DM) heterodimer (P33533 whole entry): as the sequence (P33533 whole entry) above
# Chain of DOR-MOR (DM) heterodimer (P33535 whole entry): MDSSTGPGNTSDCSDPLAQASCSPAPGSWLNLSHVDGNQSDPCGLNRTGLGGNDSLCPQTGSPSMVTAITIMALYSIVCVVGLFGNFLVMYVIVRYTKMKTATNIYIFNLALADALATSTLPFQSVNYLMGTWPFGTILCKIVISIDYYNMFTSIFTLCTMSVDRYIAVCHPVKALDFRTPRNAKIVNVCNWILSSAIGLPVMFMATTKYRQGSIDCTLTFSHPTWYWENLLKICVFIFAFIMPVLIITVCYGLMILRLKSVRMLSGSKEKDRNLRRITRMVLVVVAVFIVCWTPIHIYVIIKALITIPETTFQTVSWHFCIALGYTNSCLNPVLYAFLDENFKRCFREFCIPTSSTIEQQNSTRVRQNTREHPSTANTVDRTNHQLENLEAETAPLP
# Chain of DOR (P33533 whole entry): as the sequence (P33533 whole entry) above
# Chain of DOR-MOR (P33535 whole entry): as the sequence (P33535 whole entry) above
# Chain of MOR-MOR (MM) homodimer (P33535 whole entry): as above
# Chain of MOR in M-cells (P33535 whole entry): as above
# Chain of MOR (P33535 whole entry): as above
# Chain of MOR and DOR in MD-cells (P33535 whole entry): as above
# Chain of KOR in K-cells (P34975 whole entry): as the sequence (P34975 whole entry) above
# Chain of DOR in D-cells (P33533 whole entry): as the sequence (P33533 whole entry) above
compound,measurement,setting,value
"Nterm-TM1^MOR: TM1^MOR construct also containing amino acids 53-70 before the TM1 domain (GGRDSLCPPTGSPSMITAITIMALYSIVCVVGLFGNFLVMYVIVRYT; UniProt P35372 53-99, looked up, fragment)",Effect on DM heterodimerization,DOR-MOR (DM) heterodimer,suppressed DM heterodimerization in an expression level-dependent manner
same,Colocalization with WT-DOR,DOR,"colocalized with DOR, like the full-length MOR"
C[C@@H](NC(=O)[C@@H](N)Cc1ccc(O)cc1)C(=O)NCC(=O)N(C)[C@@H](Cc1ccccc1)C(=O)NCCO [DAMGO],Ca2+ response to M-agonist,KOR in K-cells,No response was evident
same,Effect on MM homodimerization and MM dimer lifetime,MOR-MOR (MM) homodimer,enhanced MM homodimerization and slightly elongated the MM dimer lifetime
same,Ca2+ signal induced by M-agonist,MOR in M-cells,induced comparable Ca²⁺ signals
same,DAMGO-induced cAMP concentration decrease via Gi,DOR-MOR,greater when DOR was co-expressed
same,Ca2+ response to M-agonist,DOR in D-cells,No response was evident
same,Ca2+ response to M-agonist compared to M-cells,MOR and DOR in MD-cells,enhanced Ca²⁺ responses
"TM1^MOR: membrane-integral peptide, MOR TM1 (amino acids 71-99), expressed in the PM (ITIMALYSIVCVVGLFGNFLVMYVIVRYT; UniProt P35372 71-99, looked up, fragment)",Effect on DM heterodimerization,DOR-MOR (DM) heterodimer,suppressed DM heterodimerization in an expression level-dependent manner
same,Colocalization with WT-DOR,DOR,"colocalized with DOR, like the full-length MOR"
"TM1^DOR: DOR TM1 peptide expressed in the PM (ITALYSAVCAVGLLGNVLVMFGIVRYTKM; UniProt P41143 52-80, looked up, fragment)",Colocalization with WT-MOR,MOR,moderately colocalized with MOR
"EL3-domain peptide of MOR: peptide with the MOR EL3 sequence (IIKALVTIPETTFQTV; UniProt P35372 303-318, looked up, fragment)",Blocking of DM heterodimers,DOR-MOR (DM) heterodimer; soluble EL3-domain peptides (Supplementary Fig. 2b),failed to block DM heterodimers
same,Blocking of DK heterodimerization (DK colocalization index),DOR-KOR (DK) heterodimer,"but not that of MOR, block DK heterodimerization"
